Measured values published in patent US20190201435, “MODULATORS OF VAULT RNAS FOR USE IN THE TREATMENT OF DISEASES” (European Molecular Biology Laboratory, published 2019).

Tests used:
[1] = biological target: p62 (SQSTM1, sequestosome 1) wild type (UniProt Q13501 Q13501:1-440); experiment: EMSA; apparent Kd, TBE pH 8.3 gel; competed by cold vtRNA1-1; conditions: tags: MBP; (radioactive in EMSA); terminal stem loop, single-stranded loops in central domain
MBP tag only = MBP tag only (UniProt P0AEX9 P0AEX9:27-396); experiment: EMSA; MBP tag control

B1: vtRNA1-1 (ssRNA)
RNA: GGCUGGCUUUAGCUCAGCGGUUACUUCGACAGUUCUUUAAUUGAAACAAGCAACCUGUCUGGGUUGUUCGAGACCCGCGGGCGCUCUCCAGUCCUUUU
Kd [1]: ~60 nM
binding result (MBP tag only): no binding
